Laboratory results as given in patent US20200188434A1, “A CELL COMPRISING A CHIMERIC ANTIGEN RECEPTOR (CAR)” (AUTOLUS LIMITED, priority 2017, published 2020).
pKd: −log10 of the molar value.

Columns and labels:
streptavidin = streptavidin (Streptomyces avidinii, UniProt P22629); details: biotin mimicking peptides binding streptavidin; read-out: affinity; cited from earlier work
[1] = target: membrane tethering component (v5-CD22(2Ig)-TM-FRB) (human); test: cell-based or functional assay
SKOV3_BCMA cells = details: 72 hour time point; T cells expressing CAR, membrane tethering component and signal dampening component
Method: FIG. 13—A: Results of an Incucyte assay comparing killing of BCMA+ SKOV3 target cells over time in the presence of varying concentrations of rapamycin by T cells expressing an anti-BCMA CAR alone (Left-hand chart) or expressing an anti-BCMA CAR in combination with a membrane tethering component (v5-CD22(2Ig)-TM-FRB) and a signal dampening component (FKBP12-CD148).
B: A summary of the data presented in A at the 72 hour time-point.
SKOV3 cells, were engineered to be BCMA positive for use as target cells. Primary human T-cells from 2 donors were transduced with two CAR constructs: (i) “Classical” anti-BCMA CAR; (ii) the tri-cistronic “dampenable” BCMA CAR system described above, Non-transduced T-cells and T-cells transduced with the different CAR constructs were challenged 8:1 with SKOV3_BCMA cells in the presence of different concentrations of rapamycin and target cell killing was investigated using an incucyte assay.

streptavidin, sequence (P22629 37-163): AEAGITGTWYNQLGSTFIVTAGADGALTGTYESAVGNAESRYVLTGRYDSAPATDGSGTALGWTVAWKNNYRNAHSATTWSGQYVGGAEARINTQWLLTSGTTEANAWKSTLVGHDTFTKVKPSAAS
membrane tethering component (v5-CD22(2Ig)-TM-FRB) (human), sequence (chain, as listed by the source): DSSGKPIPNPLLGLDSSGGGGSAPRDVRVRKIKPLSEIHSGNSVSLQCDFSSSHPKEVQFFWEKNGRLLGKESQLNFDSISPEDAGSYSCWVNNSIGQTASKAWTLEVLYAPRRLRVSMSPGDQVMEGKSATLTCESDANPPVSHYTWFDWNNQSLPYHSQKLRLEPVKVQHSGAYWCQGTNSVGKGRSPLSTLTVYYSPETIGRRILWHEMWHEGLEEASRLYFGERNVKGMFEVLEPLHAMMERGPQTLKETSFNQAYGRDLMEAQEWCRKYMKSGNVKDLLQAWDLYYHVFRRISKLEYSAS

Molecule	pKd (streptavidin)	further results
Biotin mimicking peptide, sequence DVEAWLDERVPLVET (SEQ ID NO: 36) (Biotin mimicking peptide, long nanotag)	8.44	
signal dampening component (FKBP12-CD148)		killing of BCMA+ SKOV3 target cells at the 72 hour time point (incucyte assay); rapamycin concentration above which killing was inhibited [1]: > 0.82 µM; target cells surviving at 50 hours (incucyte assay), T cells co-expressing the CAR with a dampener, with rapamycin [1]: 50%
Biotin mimicking peptide, sequence WSHPQFEK (SEQ ID NO: 39) [streptagII]	4.14	
CO[C@H]1C[C@@H]2CC[C@@H](C)[C@@](O)(O2)C(=O)C(=O)N2CCCC[C@H]2C(=O)O[C@H]([C@H](C)C[C@@H]2CC[C@@H](O)[C@H](OC)C2)CC(=O)[C@H](C)/C=C(\C)[C@@H](O)[C@@H](OC)C(=O)[C@H](C)C[C@H](C)/C=C/C=C/C=C/1C [Rapamycin, rapamycin]		tested concentrations of Rapamycin at which killing of target cells was significantly inhibited (SKOV3_BCMA cells): above 0.82 μM
Biotin mimicking peptide, sequence CHPQGPPC (SEQ ID NO: 41) (Biotin mimicking peptide, ccstreptag)	6.64	
Biotin mimicking peptide, sequence DVEAWLGAR (SEQ ID NO: 37) (Biotin mimicking peptide, short nanotag)	7.77	
